Measured values taken from PMC6007377.

Target: TDG N140A (human, UniProt Q13569 1-410, N140A)
Assay: fluorescence anisotropy

TDG N140A, sequence (Q13569 whole entry N140A): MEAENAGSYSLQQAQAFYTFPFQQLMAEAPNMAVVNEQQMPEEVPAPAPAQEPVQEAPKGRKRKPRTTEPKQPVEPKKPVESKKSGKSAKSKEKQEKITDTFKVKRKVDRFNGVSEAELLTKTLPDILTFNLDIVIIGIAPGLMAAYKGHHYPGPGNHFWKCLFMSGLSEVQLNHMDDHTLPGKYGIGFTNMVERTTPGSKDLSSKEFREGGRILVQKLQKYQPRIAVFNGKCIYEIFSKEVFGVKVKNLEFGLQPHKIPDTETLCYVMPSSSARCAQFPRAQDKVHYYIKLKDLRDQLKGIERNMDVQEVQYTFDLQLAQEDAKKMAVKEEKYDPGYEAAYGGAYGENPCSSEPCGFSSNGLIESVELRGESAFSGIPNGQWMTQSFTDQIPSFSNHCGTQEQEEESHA

Row | Binder | Kd [nM]
1 | G·fC 28mer (TR) (dsDNA, 5-formylcytosine at position 17 of strand 1, paired with G) DNA 1: GTGTCACCACTGCTCACGTACAGAGCTG DNA 2: CAGCTCTGTACGTGAGCAGTGGTGACAC | 4 ± 0.8
2 | G·caC 28mer (TR) (dsDNA, 5-carboxylcytosine at position 17 of strand 1, paired with G) DNA 1: GTGTCACCACTGCTCACGTACAGAGCTG DNA 2: CAGCTCTGTACGTGAGCAGTGGTGACAC | 2.3 ± 0.6
